According to paper PMC3412365 (The Journal of neuroscience : the official journal of the …, 2011):

T1: RGS9-2 (mouse (endogenous in striatum), UniProt O54828-1 1-675)
T1 sequence (looked up): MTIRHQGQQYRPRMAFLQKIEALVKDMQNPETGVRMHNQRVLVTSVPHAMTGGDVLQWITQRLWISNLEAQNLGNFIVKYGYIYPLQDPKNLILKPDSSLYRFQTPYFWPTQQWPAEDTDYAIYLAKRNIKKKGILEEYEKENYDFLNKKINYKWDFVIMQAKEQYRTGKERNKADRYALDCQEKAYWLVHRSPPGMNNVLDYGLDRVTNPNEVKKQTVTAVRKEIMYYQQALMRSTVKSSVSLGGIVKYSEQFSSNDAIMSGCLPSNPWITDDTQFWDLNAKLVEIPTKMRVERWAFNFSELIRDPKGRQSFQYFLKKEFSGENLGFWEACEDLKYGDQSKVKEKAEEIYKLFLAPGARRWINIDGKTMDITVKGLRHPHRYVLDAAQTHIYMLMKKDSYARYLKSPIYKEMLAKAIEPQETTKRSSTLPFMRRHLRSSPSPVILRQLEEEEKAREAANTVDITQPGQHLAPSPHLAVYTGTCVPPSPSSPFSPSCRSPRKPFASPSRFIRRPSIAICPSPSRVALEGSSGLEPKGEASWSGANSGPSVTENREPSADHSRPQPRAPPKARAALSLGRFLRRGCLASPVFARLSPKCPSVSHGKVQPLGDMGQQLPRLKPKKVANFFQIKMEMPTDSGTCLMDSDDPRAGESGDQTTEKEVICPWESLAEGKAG


Molecular target: T1, RGS9-2
Experiment: co-IP

co-IP signal after chronic morphine, % compared with vehicle-treated mice	Binder
216%	Gαq (natural protein, mouse (endogenous in striatum), UniProt P21279 1-359, looked up) MTLESIMACCLSEEAKEARRINDEIERQLRRDKRDARRELKLLLLGTGESGKSTFIKQMRIIHGSGYSDEDKRGFTKLVYQNIFTAMQAMIRAMDTLKIPYKYEHNKAHAQLVREVDVEKVSAFENPYVDAIKSLWNDPGIQECYDRRREYQLSDSTKYYLNDLDRVADPSYLPTQQDVLRVRVPTTGIIEYPFDLQSVIFRMVDVGGQRSERRKWIHCFENVTSIMFLVALSEYDQVLVESDNENRMEESKALFRTIITYPWFQNSSVILFLNKKDLLEEKIMYSHLVDYFPEYDGPQRDAQAAREFILKMFVDLNPDSDKIIYSHFTCATDTENIRFVFAAVKDTILQLNLKEYNLV
171%	Gβ5 (natural protein, mouse (endogenous in striatum), UniProt P62881-2 1-353, looked up) MATDGLHENETLASLKSEAESLKGKLEEERAKLHDVELHQVAERVEALGQFVMKTRRTLKGHGNKVLCMDWCKDKRRIVSSSQDGKVIVWDSFTTNKEHAVTMPCTWVMACAYAPSGCAIACGGLDNKCSVYPLTFDKNENMAAKKKSVAMHTNYLSACSFTNSDMQILTASGDGTCALWDVESGQLLQSFHGHGADVLCLDLAPSETGNTFVSGGCDKKAMVWDMRSGQCVQAFETHESDVNSVRYYPSGDAFASGSDDATCRLYDLRADREVAIYSKESIIFGASSVDFSLSGRLLFAGYNDYTINVWDVLKGSRVSILFGHENRVSTLRVSPDGTAFCSGSWDHTLRVWA
